Test results from paper PMC13050799.

Experiments:
[1] = dual luciferase reporter, HEPM; details: glycan lost; control: MEIS2-WT in shOGT HEPM cells
[2] = Western blot of MEIS2 ± MG132, HEPM; details: glycan lost; control: DMSO
[3] = CHX chase, immunoblot, endogenous MEIS2 in HEPM; details: control: DMSO
[4] = anti-MEIS2 or anti-HA IP, ubiquitin blot; details: control: DMSO

B1: MEIS2: S237A (protein)
parent chain: MAQRYDELPHYGGMDGVGVPASMYGDPHAPRPIPPVHHLNHGPPLHATQHYGAHAPHPNVMPASMGSAVNDALKRDKDAIYGHPLFPLLALVFEKCELATCTPREPGVAGGDVCSSDSFNEDIAVFAKQVRAEKPLFSSNPELDNLMIQAIQVLRFHLLELEKVHELCDNFCHRYISCLKGKMPIDLVIDERDGSSKSDHEELSGSSTNLADHNPSSWRDHDDATSTHSAGTPGPSSGGHASQSGDNSSEQGDGLDNSVASPGTGDDDDPDKDKKRQKKRGIFPKVATNIMRAWLFQHLTHPYPSEEQKKQLAQDTGLTILQVNNWFINARRRIVQPMIDQSNRAGFLLDPSVSQGAAYSPEGQPMGSFVLDGQQHMGIRPAGLQSMPGDYVSQGGPMGMSMAQPSYTPPQMTPHPTQLRHGPPMHSYLPSHPHHPAMMMHGGPPTHPGMTMSAQSPTMLNSVDPNVGGQVMDIHAQ
With B1 as the protein, how does the “other: transcriptional activation of promoter” value [1] read?
The value was “decreases”.

B2: MEIS2: OSMI-1 (protein)
parent chain: MAQRYDELPHYGGMDGVGVPASMYGDPHAPRPIPPVHHLNHGPPLHATQHYGAHAPHPNVMPASMGSAVNDALKRDKDAIYGHPLFPLLALVFEKCELATCTPREPGVAGGDVCSSDSFNEDIAVFAKQVRAEKPLFSSNPELDNLMIQAIQVLRFHLLELEKVHELCDNFCHRYISCLKGKMPIDLVIDERDGSSKSDHEELSGSSTNLADHNPSSWRDHDDATSTHSAGTPGPSSGGHASQSGDNSSEQGDGLDNSVASPGTGDDDDPDKDKKRQKKRGIFPKVATNIMRAWLFQHLTHPYPSEEQKKQLAQDTGLTILQVNNWFINARRRIVQPMIDQSNRAGFLLDPSVSQGAAYSPEGQPMGSFVLDGQQHMGIRPAGLQSMPGDYVSQGGPMGMSMAQPSYTPPQMTPHPTQLRHGPPMHSYLPSHPHHPAMMMHGGPPTHPGMTMSAQSPTMLNSVDPNVGGQVMDIHAQ
What does the source list for B2?
expression_or_secretion [2]: decreases; degradation_or_half_life ([3]; glycan lost): decreases; other: ubiquitination ([4]; glycan lost): increases

B3: MEIS2: Thiamet G (protein)
parent chain: MAQRYDELPHYGGMDGVGVPASMYGDPHAPRPIPPVHHLNHGPPLHATQHYGAHAPHPNVMPASMGSAVNDALKRDKDAIYGHPLFPLLALVFEKCELATCTPREPGVAGGDVCSSDSFNEDIAVFAKQVRAEKPLFSSNPELDNLMIQAIQVLRFHLLELEKVHELCDNFCHRYISCLKGKMPIDLVIDERDGSSKSDHEELSGSSTNLADHNPSSWRDHDDATSTHSAGTPGPSSGGHASQSGDNSSEQGDGLDNSVASPGTGDDDDPDKDKKRQKKRGIFPKVATNIMRAWLFQHLTHPYPSEEQKKQLAQDTGLTILQVNNWFINARRRIVQPMIDQSNRAGFLLDPSVSQGAAYSPEGQPMGSFVLDGQQHMGIRPAGLQSMPGDYVSQGGPMGMSMAQPSYTPPQMTPHPTQLRHGPPMHSYLPSHPHHPAMMMHGGPPTHPGMTMSAQSPTMLNSVDPNVGGQVMDIHAQ
For B3, which degradation_or_half_life ([3]; glycan gained) is on record?
The degradation_or_half_life was “increases”.

What about the “other: ubiquitination” value ([4]; glycan gained) of the same protein?
Its value is “decreases”.
